What was measured:
Assay in all cases: holdup assay
Set-up in all cases: key: below the threshold = too weak to quantify, mostly under pKd 3.1 to 4
Conditions in all cases: plain residues with an end cap or a label only (N-terminal biotin on a linker: ado-ado)
[1] = target: HTRA1, Q92743
[2] = target: NHERF4_4, Q86UT5
[3] = target: T1, GRIP1_2, Q9Y3R0
T1 sequence (Q9Y3R0 145-248, limits assumed, looked up): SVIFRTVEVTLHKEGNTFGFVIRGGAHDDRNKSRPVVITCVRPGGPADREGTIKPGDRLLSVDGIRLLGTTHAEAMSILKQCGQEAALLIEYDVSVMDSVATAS

[4] = target: T2, DLG3_1, Q92796
T2 sequence (Q92796 125-227, limits assumed, looked up): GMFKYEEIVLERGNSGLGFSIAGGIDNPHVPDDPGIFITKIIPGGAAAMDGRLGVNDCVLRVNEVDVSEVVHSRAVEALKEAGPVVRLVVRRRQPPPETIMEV

[5] = target: TJP1_3, Q07157
[6] = target: DLG4_1, P78352
[7] = target: GORASP2, Q9H8Y8
[8] = target: LAP2, Q96RT1
[9] = target: TJP2_1, Q9UDY2
[10] = target: T3, MPDZ_10, O75970
T3 sequence (O75970 1624-1722, limits assumed, looked up): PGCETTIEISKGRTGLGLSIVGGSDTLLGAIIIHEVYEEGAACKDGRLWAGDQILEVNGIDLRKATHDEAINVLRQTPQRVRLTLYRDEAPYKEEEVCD

[11] = target: T4, GRIP1_4, Q9Y3R0
T4 sequence (Q9Y3R0 467-571, limits assumed, looked up): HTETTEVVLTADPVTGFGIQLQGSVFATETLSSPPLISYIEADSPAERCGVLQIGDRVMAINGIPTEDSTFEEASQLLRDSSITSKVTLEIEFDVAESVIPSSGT

[12] = target: IL16_1, Q14005
[13] = target: T5, DLG3_2, Q92796
T5 sequence (Q92796 221-321, limits assumed, looked up): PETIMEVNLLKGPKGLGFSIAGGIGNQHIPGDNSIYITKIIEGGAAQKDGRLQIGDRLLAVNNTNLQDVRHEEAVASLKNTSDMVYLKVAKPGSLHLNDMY

[14] = target: T6, LIN7B, Q9HAP6
T6 sequence (Q9HAP6 88-185, limits assumed, looked up): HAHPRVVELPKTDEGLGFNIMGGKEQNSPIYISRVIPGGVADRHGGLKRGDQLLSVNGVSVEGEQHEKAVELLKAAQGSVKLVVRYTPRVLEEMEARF

[15] = target: T7, PTPN13_1, Q12923
T7 sequence (Q12923 1088-1188, limits assumed, looked up): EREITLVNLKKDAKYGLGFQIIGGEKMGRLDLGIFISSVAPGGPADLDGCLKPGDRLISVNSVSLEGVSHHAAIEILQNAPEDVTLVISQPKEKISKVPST

[16] = target: T8, RHPN1, Q8TCX5
T8 sequence (Q8TCX5 508-602, limits assumed, looked up): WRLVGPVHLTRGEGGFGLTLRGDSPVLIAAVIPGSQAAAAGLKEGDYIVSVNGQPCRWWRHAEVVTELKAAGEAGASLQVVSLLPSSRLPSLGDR

[17] = target: Inadl_10, Q8NI35
[18] = target: NOS1, P29475
[19] = target: T9, HTRA3, P83110
T9 sequence (P83110 354-453, limits assumed, looked up): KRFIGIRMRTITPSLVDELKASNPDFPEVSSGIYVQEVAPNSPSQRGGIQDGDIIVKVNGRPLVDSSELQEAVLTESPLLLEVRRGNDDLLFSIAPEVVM

[20] = target: Inadl_9, Q8NI35
[21] = target: T10, DFNB31_1, Q9P202
T10 sequence (Q9P202 135-233, limits assumed, looked up): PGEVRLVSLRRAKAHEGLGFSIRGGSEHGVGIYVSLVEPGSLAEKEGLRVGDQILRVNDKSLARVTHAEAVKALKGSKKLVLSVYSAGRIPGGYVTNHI

[22] = target: T11, PARD3B_1, Q8TEW8
T11 sequence (Q8TEW8 196-299, limits assumed, looked up): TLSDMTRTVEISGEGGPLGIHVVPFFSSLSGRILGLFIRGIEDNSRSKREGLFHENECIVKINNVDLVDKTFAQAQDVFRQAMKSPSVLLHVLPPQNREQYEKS

[23] = target: T12, SYNJ2BP, P57105
T12 sequence (P57105 8-110, limits assumed, looked up): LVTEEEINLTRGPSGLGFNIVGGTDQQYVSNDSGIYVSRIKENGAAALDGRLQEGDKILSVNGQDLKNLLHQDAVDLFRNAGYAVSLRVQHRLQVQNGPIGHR

[24] = target: DLG1_3, Q12959
[25] = target: Inadl_5, Q8NI35
Chain of Inadl_5, Q8NI35 (Q8NI35 673-780): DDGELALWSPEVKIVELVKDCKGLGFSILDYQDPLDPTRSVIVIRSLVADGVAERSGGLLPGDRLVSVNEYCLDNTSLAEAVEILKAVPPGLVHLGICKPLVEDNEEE

Chain of Inadl_9, Q8NI35 (Q8NI35 1530-1615): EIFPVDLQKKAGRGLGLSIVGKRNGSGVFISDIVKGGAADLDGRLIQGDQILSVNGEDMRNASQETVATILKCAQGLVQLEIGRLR
Chain of TJP2_1, Q9UDY2 (Q9UDY2 24-128): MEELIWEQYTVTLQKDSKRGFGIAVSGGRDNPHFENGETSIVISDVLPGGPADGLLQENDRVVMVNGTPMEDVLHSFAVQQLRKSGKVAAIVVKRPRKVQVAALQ
Chain of TJP1_3, Q07157 (Q07157 416-512): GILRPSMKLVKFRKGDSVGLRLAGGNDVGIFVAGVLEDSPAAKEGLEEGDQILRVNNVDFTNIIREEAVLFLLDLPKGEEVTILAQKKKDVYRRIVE
Chain of IL16_1, Q14005 (Q14005 210-306): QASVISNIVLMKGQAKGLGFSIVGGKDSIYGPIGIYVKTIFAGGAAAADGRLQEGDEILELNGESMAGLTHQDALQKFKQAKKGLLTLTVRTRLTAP
Chain of Inadl_10, Q8NI35 (Q8NI35 1673-1763): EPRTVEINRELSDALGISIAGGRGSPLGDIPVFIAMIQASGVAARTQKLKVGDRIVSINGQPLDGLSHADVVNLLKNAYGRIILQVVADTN
Chain of HTRA1, Q92743 (Q92743 360-477): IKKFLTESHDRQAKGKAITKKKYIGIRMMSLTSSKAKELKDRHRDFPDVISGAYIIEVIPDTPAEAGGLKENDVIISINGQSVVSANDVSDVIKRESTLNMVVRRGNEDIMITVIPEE
Chain of DLG1_3, Q12959 (Q12959 457-571): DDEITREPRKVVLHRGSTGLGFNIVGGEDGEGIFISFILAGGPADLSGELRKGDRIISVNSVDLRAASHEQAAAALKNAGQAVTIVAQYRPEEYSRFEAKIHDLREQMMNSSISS
Chain of NOS1, P29475 (P29475 9-101): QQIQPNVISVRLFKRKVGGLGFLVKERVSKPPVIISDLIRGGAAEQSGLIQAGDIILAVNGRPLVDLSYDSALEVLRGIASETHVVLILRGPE
Chain of NHERF4_4, Q86UT5 (Q86UT5 464-550): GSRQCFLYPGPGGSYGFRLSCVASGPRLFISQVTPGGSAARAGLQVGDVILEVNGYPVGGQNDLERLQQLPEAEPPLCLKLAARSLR
Chain of DLG4_1, P78352 (P78352 62-152): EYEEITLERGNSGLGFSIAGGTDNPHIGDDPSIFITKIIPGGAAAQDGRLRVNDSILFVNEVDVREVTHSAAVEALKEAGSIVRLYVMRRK
Chain of LAP2, Q96RT1 (Q96RT1 other isoform, or with tags, fused parts or gaps): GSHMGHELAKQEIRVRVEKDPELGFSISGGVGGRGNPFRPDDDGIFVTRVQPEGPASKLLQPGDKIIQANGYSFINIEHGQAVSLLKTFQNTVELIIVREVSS

In the case of FNSYSLTGYV [CLDN2, P57739], the pKd [1] is reported as 4.4, the pKd [2] is reported as 3.99 and the pKd [3] is reported as “below the threshold”. For the same binder, the pKd [4] was “below the threshold”, the pKd [5] was 3.63 and the pKd [6] was 3.51. For the same binder, the pKd [7] was 4.36, the pKd [8] was “below the threshold” and the pKd [9] was 4.84. For the same binder, the pKd [10] was “below the threshold”, the pKd [11] was “below the threshold” and the pKd [12] was 3.8. The pKd [13] was “below the threshold”, the pKd [14] was “below the threshold” and the pKd [15] was “below the threshold”. The pKd [16] was “below the threshold”, the pKd [17] was “below the threshold” and the pKd [18] was “below the threshold”. The pKd [19] was 4.6, the pKd [20] was “below the threshold” and the pKd [21] was “below the threshold”. The pKd [22] was 4.42, the pKd [23] was 3.88 and the pKd [24] was “below the threshold”. It also gave a pKd [25] of 3.6.

For QGPVETESVV [SLC45A4, Q5BKX6], the pKd [1] was 4.55, the pKd [2] was “below the threshold” and the pKd [3] was “below the threshold”. For the same binder, the pKd [4] was 3.88, the pKd [5] was “below the threshold” and the pKd [6] was 4.33. The pKd [7] was 3.53, the pKd [8] was 3.66 and the pKd [9] was “below the threshold”. The pKd [10] was “below the threshold”, the pKd [11] was “below the threshold” and the pKd [12] was 4.95. The pKd [13] was 4.47, the pKd [14] was “below the threshold” and the pKd [15] was “below the threshold”. The pKd [16] was 4.47, the pKd [17] was “below the threshold” and the pKd [18] was 3.85. For the same binder, the pKd [19] was “below the threshold”, the pKd [20] was 3.75 and the pKd [21] was 3.66. For the same binder, the pKd [22] was “below the threshold”, the pKd [23] was 4.49 and the pKd [24] was “below the threshold”. The pKd [25] was 3.54.

For PRAEAEDSFL [PDGFRB, P09619], the pKd [1] was 4.27, the pKd [2] was 4.03 and the pKd [3] was “below the threshold”. For the same binder, the pKd [4] was “below the threshold”, the pKd [5] was “below the threshold” and the pKd [6] was 3.72. For the same binder, the pKd [7] was “below the threshold”, the pKd [8] was 3.53 and the pKd [9] was “below the threshold”. The pKd [10] was “below the threshold”, the pKd [11] was “below the threshold” and the pKd [12] was “below the threshold”. For the same binder, the pKd [13] was “below the threshold”, the pKd [14] was “below the threshold” and the pKd [15] was “below the threshold”. The pKd [16] was 4.23, the pKd [17] was “below the threshold” and the pKd [18] was 3.57. The pKd [19] was “below the threshold”, the pKd [20] was “below the threshold” and the pKd [21] was 3.62. For the same binder, the pKd [22] was 4.55, the pKd [23] was 3.93 and the pKd [24] was 3.54. The pKd [25] was “below the threshold”.

With EALLQMESVA [CAVIN3, Q969G5] the pKd [1] was 3.93, the pKd [2] was “below the threshold” and the pKd [3] was “below the threshold”. The pKd [4] was “below the threshold”, the pKd [5] was “below the threshold” and the pKd [6] was “below the threshold”. The pKd [7] was “below the threshold”, the pKd [8] was “below the threshold” and the pKd [9] was “below the threshold”. For the same binder, the pKd [10] was “below the threshold”, the pKd [11] was “below the threshold” and the pKd [12] was “below the threshold”. The pKd [13] was 4.21, the pKd [14] was 3.57 and the pKd [15] was “below the threshold”. For the same binder, the pKd [16] was 3.69, the pKd [17] was “below the threshold” and the pKd [18] was “below the threshold”. The pKd [19] was “below the threshold”, the pKd [20] was “below the threshold” and the pKd [21] was “below the threshold”. The pKd [22] was “below the threshold”, the pKd [23] was 3.52 and the pKd [24] was “below the threshold”. The pKd [25] was “below the threshold”.

With KKAPTNEFYA [SDC4, P31431] the pKd [1] was 4.41, the pKd [2] was “below the threshold” and the pKd [3] was “below the threshold”. The pKd [4] was “below the threshold”, the pKd [5] was “below the threshold” and the pKd [6] was “below the threshold”. For the same binder, the pKd [7] was “below the threshold”, the pKd [8] was “below the threshold” and the pKd [9] was “below the threshold”. For the same binder, the pKd [10] was “below the threshold”, the pKd [11] was “below the threshold” and the pKd [12] was “below the threshold”. For the same binder, the pKd [13] was 4.14, the pKd [14] was 3.74 and the pKd [15] was “below the threshold”. The pKd [16] was “below the threshold”, the pKd [17] was “below the threshold” and the pKd [18] was “below the threshold”. The pKd [19] was 4.38, the pKd [20] was “below the threshold” and the pKd [21] was “below the threshold”. For the same binder, the pKd [22] was 4.52, the pKd [23] was “below the threshold” and the pKd [24] was “below the threshold”. For the same binder, the pKd [25] was “below the threshold”.

In the case of VKPQVSESKL [ACOT8, O14734], the pKd [1] is reported as “below the threshold”, the pKd [2] is reported as “below the threshold” and the pKd [3] is reported as “below the threshold”. For the same binder, the pKd [4] was “below the threshold”, the pKd [5] was “below the threshold” and the pKd [6] was “below the threshold”. The pKd [7] was “below the threshold”, the pKd [8] was “below the threshold” and the pKd [9] was “below the threshold”. For the same binder, the pKd [10] was “below the threshold”, the pKd [11] was “below the threshold” and the pKd [12] was “below the threshold”. For the same binder, the pKd [13] was 4.17, the pKd [14] was 3.59 and the pKd [15] was “below the threshold”. For the same binder, the pKd [16] was 4.07, the pKd [17] was “below the threshold” and the pKd [18] was “below the threshold”. The pKd [19] was “below the threshold”, the pKd [20] was “below the threshold” and the pKd [21] was 4.29. For the same binder, the pKd [22] was 3.69, the pKd [23] was 3.75 and the pKd [24] was “below the threshold”. The pKd [25] was “below the threshold”.

Source: article PMC9482650, “Quantitative fragmentomics allow affinity mapping of interactomes” (Nature Communications, 2022)
